Source: patent publication EP4722253A1

Molecular target: HER2 expressed on JIMT-1 cells (UniProt P04626)
Assay: flow cytometry on JIMT-1 cells, antibody at 100 nM, FITC secondary

MFI: 12500
Substance: IgG control (antibody)
